Experimental data as given in patent US20260151494A1 (ARO BIOTHERAPEUTICS, published 2026).
Residue numbers refer to the chain shown, from its start.

B1: CD71-binding FN3 domain of SEQ ID NO: 498 (designed binder)
chain: MLPAPKNLVVSRVTEDSARLSWTAPDAAFDSFFIGYLEPQPPGEAIILWVPGSERSYDLTGLKPGTEYNVTIQGVKGGFPSIPLIAVFTT
B2: CD71-binding FN3 domain of SEQ ID NO: 530 (designed binder)
chain: B1 chain with I47D, W49L, I82E, I85F, V87H
B3: CD71-binding FN3 domain of SEQ ID NO: 534 (designed binder)
chain: B1 chain with I47H, W49L, I82G, I85Q, V87S
B4: CD71-binding FN3 domain of SEQ ID NO: 512 (designed binder)
chain: B1 chain with I47D, I82D, I85D, V87H
B5: CD71-binding FN3 domain of SEQ ID NO: 516 (designed binder)
chain: B1 chain with I47S, I82S, I85V, V87Y
B6: CD71-binding FN3 domain of SEQ ID NO: 511 (designed binder)
chain: B1 chain with I47D, W49F, I82L, I85V, V87S
B7: CD71-binding FN3 domain of SEQ ID NO: 501 (designed binder)
chain: B1 chain with I47S, W49L, I82V, I85S, V87I
B8: CD71-binding FN3 domain of SEQ ID NO: 542 (designed binder)
chain: B1 chain with I47E, W49F, I82M, I85S, V87I
B9: CD71-binding FN3 domain of SEQ ID NO: 514 (designed binder)
chain: B1 chain with I47H, W49F, I82E, V87N
B10: CD71-binding FN3 domain of SEQ ID NO: 499 (designed binder)
chain: B1 chain with I47S, W49Y, I82S, I85F, V87D
B11: CD71-binding FN3 domain of SEQ ID NO: 504 (designed binder)
chain: B1 chain with I47G, W49V, I82H, I85G, V87I
B12: CD71-binding FN3 domain of SEQ ID NO: 533 (designed binder)
chain: B1 chain with I47N, W49F, I82M, I85S, V87I
B13: CD71-binding FN3 domain of SEQ ID NO: 515 (designed binder)
chain: B1 chain with I47A, I82T, V87Q
B14: CD71-binding FN3 domain of SEQ ID NO: 538 (designed binder)
chain: B1 chain with I47D, W49Y, I82H, I85V
B15: CD71-binding FN3 domain of SEQ ID NO: 500 (designed binder)
chain: B1 chain with I47D, W49L, I82M, I85S, V87I
B16: CD71-binding FN3 domain of SEQ ID NO: 525 (designed binder)
chain: B1 chain with I47A, W49Y, I82E, I85V, V87T
B17: CD71-binding FN3 domain of SEQ ID NO: 508 (designed binder)
chain: B1 chain with I47T, W49S, I82E, V87I
B18: CD71-binding FN3 domain of SEQ ID NO: 541 (designed binder)
chain: B1 chain with I47D, I82M, I85D, V87Y
B19: CD71-binding FN3 domain of SEQ ID NO: 513 (designed binder)
chain: B1 chain with I47S, W49Y, I82L, I85A, V87Q
B20: CD71-binding FN3 domain of SEQ ID NO: 527 (designed binder)
chain: B1 chain with I47H, W49Y, I82E, V87N
B21: CD71-binding FN3 domain of SEQ ID NO: 517 (designed binder)
chain: B1 chain with I47A, W49V, I82M, I85F, V87Y
B22: CD71-binding FN3 domain of SEQ ID NO: 539 (designed binder)
chain: B1 chain with I47H, W49F, I82D, I85H, V87A
B23: CD71-binding FN3 domain of SEQ ID NO: 524 (designed binder)
chain: B1 chain with I47H, I82M, I85S, V87I
B24: CD71-binding FN3 domain of SEQ ID NO: 502 (designed binder)
chain: B1 chain with I47G, W49H, I85E, V87K
B25: CD71-binding FN3 domain of SEQ ID NO: 521 (designed binder)
chain: B1 chain with I47V, I82H, I85V, V87H
B26: CD71-binding FN3 domain of SEQ ID NO: 523 (designed binder)
chain: B1 chain with I47D, W49L, I82E, I85T, V87E
B27: CD71-binding FN3 domain of SEQ ID NO: 528 (designed binder)
chain: B1 chain with I47T, W49L, V87I
B28: CD71-binding FN3 domain of SEQ ID NO: 518 (designed binder)
chain: B1 chain with I47S, I82D, I85G, V87H
B29: CD71-binding FN3 domain of SEQ ID NO: 529 (designed binder)
chain: B1 chain with I47D, W49Y, I82L, I85Q, V87H
B30: CD71-binding FN3 domain of SEQ ID NO: 505 (designed binder)
chain: B1 chain with P25L, I47H, W49F, I82E, V87N
B31: CD71-binding FN3 domain of SEQ ID NO: 535 (designed binder)
chain: B1 chain with I47H, W49Q, I82D, I85V, V87K
B32: CD71-binding FN3 domain of SEQ ID NO: 522 (designed binder)
chain: B1 chain with I47T, W49Y, T60N, I82M, I85S, V87I
B33: CD71-binding FN3 domain of SEQ ID NO: 526 (designed binder)
chain: B1 chain with I47S, W49I, I82D, V87I

Assays:
[1] = biological target: T1, human CD71 extracellular domain (human, UniProt P02786 89-760, biotinylated); test: primary ELISA; note: test concentration or dose not given here
T1 construct: also called hCD71; CD71-ECD
T1 sequence (P02786 89-760): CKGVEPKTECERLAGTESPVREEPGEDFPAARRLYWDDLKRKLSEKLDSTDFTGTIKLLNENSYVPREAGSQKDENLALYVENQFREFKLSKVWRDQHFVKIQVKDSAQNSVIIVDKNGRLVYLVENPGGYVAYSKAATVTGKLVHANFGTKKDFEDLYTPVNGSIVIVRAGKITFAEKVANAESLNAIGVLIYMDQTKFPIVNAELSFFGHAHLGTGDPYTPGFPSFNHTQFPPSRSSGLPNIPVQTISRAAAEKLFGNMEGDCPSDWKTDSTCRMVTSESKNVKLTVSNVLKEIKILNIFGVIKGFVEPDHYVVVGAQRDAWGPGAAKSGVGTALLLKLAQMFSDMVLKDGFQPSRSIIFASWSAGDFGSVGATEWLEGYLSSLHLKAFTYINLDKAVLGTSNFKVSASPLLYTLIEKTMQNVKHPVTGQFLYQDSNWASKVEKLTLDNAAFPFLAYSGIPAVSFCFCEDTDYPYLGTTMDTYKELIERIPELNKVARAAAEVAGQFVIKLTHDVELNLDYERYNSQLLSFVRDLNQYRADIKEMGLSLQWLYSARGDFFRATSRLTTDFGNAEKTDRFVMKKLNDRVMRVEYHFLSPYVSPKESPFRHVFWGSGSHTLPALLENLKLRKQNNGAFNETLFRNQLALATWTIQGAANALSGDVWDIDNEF

[2] = biological target: T2, apical domain of human CD71 (human, UniProt P02786 189-383, limits assumed); test: primary ELISA; note: test concentration or dose not given here
T2 construct: domain: apical domain; Screen 4 panned on human apical domains, the ELISA text says only 'apical domain'
T2 sequence (P02786 189-383 limits assumed): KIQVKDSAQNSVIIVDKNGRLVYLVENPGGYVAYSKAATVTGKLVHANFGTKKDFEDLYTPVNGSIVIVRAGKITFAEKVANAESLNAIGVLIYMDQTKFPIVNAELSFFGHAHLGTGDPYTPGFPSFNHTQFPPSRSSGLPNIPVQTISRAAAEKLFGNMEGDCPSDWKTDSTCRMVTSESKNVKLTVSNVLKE

[3] = biological target: T1, human CD71 extracellular domain; test: primary ELISA, RLU over HSA
[4] = biological target: T2, apical domain of human CD71; test: primary ELISA, RLU over HSA

Row | Binder | RLU [1] [RLU] | RLU [2] [RLU] | hCD71:HSA [3] | Apical domain:HSA [4]
1 | B1 | 5.7e+06 | 5.67e+06 | 113 | 112
2 | B2 | 4.61e+06 | 4.48e+06 | 289 | 281
3 | B3 | 5.2e+06 | 5.76e+06 | 187 | 207
4 | B4 | 2.06e+06 | 3.87e+06 | 124 | 233
5 | B5 | 4.73e+06 | 4.67e+06 | 267 | 264
6 | B6 | 5.03e+06 | 5.48e+06 | 49 | 53
7 | B7 | 3.21e+06 | 4.88e+06 | 399 | 606
8 | B8 | 2.13e+06 | 3e+06 | 169 | 237
9 | B9 | 5.92e+06 | 5.94e+06 | 119 | 119
10 | B10 | 2.78e+06 | 3.13e+06 | 132 | 148
11 | B11 | 1.22e+06 | 2.68e+06 | 78 | 172
12 | B12 | 3.18e+06 | 5.25e+06 | 146 | 241
13 | B13 | 5.14e+06 | 4.67e+06 | 97 | 88
14 | B14 | 5.57e+06 | 4.93e+06 | 185 | 164
15 | B15 | 2.95e+06 | 3.39e+06 | 147 | 169
16 | B16 | 6.02e+06 | 5.93e+06 | 49 | 48
17 | B17 | 4.22e+06 | 3.55e+06 | 264 | 222

Row | Binder | RLU [1] [RLU] | RLU [2] [RLU] | hCD71:HSA [3] | Apical domain:HSA [4]
18 | B18 | 1.79e+06 | 3.42e+06 | 73 | 140
19 | B19 | 2.52e+06 | 2.72e+06 | 186 | 201
20 | B20 | 6.59e+06 | 6.4e+06 | 15 | 15
21 | B21 | 3.12e+06 | 3.64e+06 | 142 | 166
22 | B22 | 4.94e+06 | 6.08e+06 | 167 | 205
23 | B23 | 3.22e+06 | 3.95e+06 | 190 | 232
24 | B24 | 1.49e+06 | 2.34e+06 | 141 | 222
25 | B25 | 5.62e+06 | 5.38e+06 | 186 | 178
26 | B26 | 4.19e+06 | 4.31e+06 | 292 | 300
27 | B27 | 5.18e+06 | 5.58e+06 | 169 | 182
28 | B28 | 1.85e+06 | 3.34e+06 | 150 | 271
29 | B29 | 4.13e+06 | 3.24e+06 | 466 | 366
30 | B30 | 5.38e+06 | 5.64e+06 | 52 | 54
31 | B31 | 4.29e+06 | 3.38e+06 | 362 | 285
32 | B32 | 3.91e+06 | 3.48e+06 | 318 | 283
33 | B33 | 3.7e+06 | 5.37e+06 | 497 | 721
